# Results reported in the DeepSol protein solubility set.
# Assay: soluble on expression in E. coli; label from the status in PepcDB or PDB records
row,Sequence,soluble on expression in E. coli
1,MVLEATVLVIDNSEYSRNGDFPRTRFEAQIDSVEFIFQAKRNSNPENTVGLISGAGANPRVLSTFTAEFGKILAGLHDTQIEGKLHMATALQIAQLTLKHRQNKVQHQRIVAFVCSPISDSRDELIRLAKTLKKNNVAVDIINFGEIEQNTELLDEFIAAVNNPQEETSHLLTVTPGPRLLYENIASSPIILEEGSSGMGAFGGSGGDSDANGTFMDFGVDPSMDPELAMALRLSMEEEQQRQERLRQQQQQQDQPEQSEQPEQHQDK,soluble
2,MGSDKIHHHHHHMHKTRYNALSVAFQISPRGPLLIKAGGISANPTLPDMQFVRTYHPYYGYTVYIPGSSLKGVVRGFVEKALRTLDDHTSWQWACPTFPDEDESCAKKLGKEENSATIYKNSCGACRLFGHTRLKGRVAFTDLLPVDEVKTEIRYGVAISRLSHAVAHGPFEMEVAVAGTFEGYLILENFELWQLGLLVLAFQGMNSGLLQIGFGKNRGFGEVAVQVQEARLDEVTSGMEIGLWRGLADFVSDEEKTRYGLSTTFTLNGMPDPLRTEPLGLYTRRIYDPKRWDEVAQRVTDKLGTT,not soluble
3,MGGSHHHHHHGMASALKAHMVRQHSRRQDLLPQLEAPSSLTPSSELSSPGQSELTNMDLAALFSDTPANASGSAGGSDEALNSGILTIDVTSVSSSLGGNLPANNSSLGPMEPLVLVAHSDIPPSLDSPLVLGTAATVLQQGSFSVDDVQTVSAGALGCLVALPMKNLSDDPLALTSNSNLAAHITTPTSSSTPRENASVPELLAPIKVEPDSPSRPGAVGQQEGSHGLPQSTLPSPAEQHGAQDTELSAGTGNFYLESGGSARTDYRAIQLAKEKKQRGAGSNAGASQSTQRKIKEGKMSPPHFHASQNSWLCGSLVVPSGGRPGPAPAAGVQCGAQGVQVQLVQDDPSGEGVLPSARGPATFLPFLTVDLPVYVLQEVLPSSGGPAGPEATQFPGSTINLQDLQ,not soluble
4,MLLDVQHGQFGFIKGGIIAVIWFSLSRTINCGQLNLECFEFWLPTSQLLVLDVCLFDAFALEHHHHHH,not soluble
5,MGSDKIHHHHHHMAINTTPLSESSKNNPDKQNNFVIALAGNPNVGKSTVFNRLTGLKQHTGNWPGKTVIKAEGTFSHRNRHYTLVDLPGTYSLHASSSDEEVARNFICFSRPDITLVVCDATCLERNLNLVLQILEITDRVLVCVNLLDEAERKGIQVDIAMLARQLGIPVVGTAARSGRGLESLKNVLDDMLAGKIAIQPRQLVYDPELEASINRIEKRLAPYLPAWINSRWVTLRVLERDFSILEHISNHKNNDFPRQVLKEEVALCLR,not soluble
6,MGSDKIHHHHHHMQIELANFEKIYTHFVGNKSDEEGITISKTPLQLNDESLKELLLNYFTHPFKNKEYNHFHHETDLNLNELYTYCSTIFADPDALYLQSINIAKHLYEQSKHPMIKGGELYVVHFNDCVIDGESTDAIGLFKSETKETFLKIFPQGDGYEAVSDKGIDIRKLDKGCFIINSEKENGYKVCVVDQTNKSSDAQYWKDDFLKIVSRNDSFHYTQNYMNMCKSFVTDQMPETFEVSKTDQIDLLNRSVNYFKKNESFDMQAFTNDVIQDEGLIDSFKEYKNKFQEDHQMPMVDEFEISTPAVKKYAKVFKSVLKLDRNFHIYIHGDKDLIERGRDDASGMNFYKIYYKEES,not soluble
7,MYCQRLRQLRKAHKLTMEQLAEKIGIAKSSYGGYEAESKKPPLDKLVILARLYDVSVDYILGLTDDPDPKVERKNLKEFLEKPDIHWDGYKLTPEILDPIRKILKLVTANNN,not soluble
8,MSGVKIAFIRHHDLWIKVDGKEKQLTKGEYITGPKWSYDGEWLAYVKGEKQNTLELYRLKDGKKVTPFHSEVSNYQWSPTENIIAFIFTGTLHTFKVEKKNADFENVSAGVGDYAWYPNGKKFLVSSEAHLLPTGWTGAQLYEVQKDAHMNPHKMKHLYALPNEHDDFLALVASGFQWSPDQKWISFLAVPTASWSADSNTLCLVRADGSRFEKVDQMLLNTQWFKWAPANNILAYIEGSGRVALENKHLKVKELPALQQNTFTPKGYVDWDFTWKNDNVIIVSRAKEAGIETPPEKRPLPSLYEIDSTSDEQHRITKPPHRQGDYHPLFMNKSNQLIWIRSDRKKADVWLAHKDGKHEMKWIENIDVPLEHHHHHH,not soluble
9,MGSDKIHHHHHHMKIVFMGTPEFAAAHLKEIVESGNKVAGVFSQPDRPKGRGQKVEPTPVKTVATNYGIPVFQPEKINSDEGFEKLSELSPDIIVVVAFGKLLKSGVINLPTIGCFNVHASLLPKYRGAAPIQRAIENGETKTGITIFKIDEGMDTGAIALKRELEIHPSDSFGSLYLKLAELGKKTLVHFLERVKEGRLELAPQDGIPSFAPKIQPEDLVISDLSDAAKVVNKIRAYDPQPGARVSVEGRISKVFGASLKCRNEGKGIVGEIVKIDDRGMIVSCGAENVIISLVQFPGKKPMRPKDALSGRLISEGIILGG,not soluble
10,SFREQDIYLPIANVARIMKNAIPQTGKIAKDAKECVQECVSEFISFITSEASERCHQEKRKTINGEDILFAMSTLGFDSYVEPLKLYLQKFRE,soluble
11,MMRVKFNGKELDTDFKTSLEFFENISKNENDVWIINGFATKENIALNENDELFCIEKNTLPPKDALDAMMRARHTPKLHDKLKNGRVAVCGLGGLGSHIAINLARSGVGYLKLIDFDVIEPSNLNRQAYRVSDLGKFKTEALKEQISEINPYISVEICTLKIDEDNLESLFKDIDIVCEAFDSAIAKAMIAQNFHRFYKDGILICASGLAGYGDSNSIQTRKIAKNFYVCGDLVNGAKLGNGLMAPRVNICAGHQSNLVLELLANKELEHHHHHH,soluble
12,LKQKVENLFNEKCGEALGLKQAVKVPFALFESFPEDFYVEGLPEGVPFRRPSTFGIPRLEKILRNKAKIKFIIKKPEMFETAIKES,soluble
13,MSETLIIRFNVGGTPMATLKTTFPVDSIFHKWFVSRTKASPFTSDRDGAYFVDRDPFSFGVVLNYFRLRKAGQLWEACLPKDPDRLAMLTQEADFFLLPQLRDQAICMLQLCSNKNDSNYINEMLAKSTSCPQGFDKKEEEDEEDF,not soluble
14,MSIVVKKWNELAEVKAELAARDWFFATSGNLSIKVTDDPLTFLVTASGKDKRKQTEEDFLLVDAAGKPAEETNLKPSAETLLHAEIYGRTNAGCVLHVHTVDNNLISELYAQNGEAVFSGQEIIKAFGIWEENAAVRIPIIDNYADIPTLAREFANYIHGDAGAVLIQNHGITVWGRTAFEAKKHLEAWEFLFRWQVKRLLLQRAGLPVG,not soluble
15,IIAWLGPQLRELTPVDTNKDPKTRLQEFLQSRGCDLPRYEVVDIQGEPHCRTFFVDCEVALLSDKTHGHGGSRRIAEQVAAAAALVALGVENGHD,not soluble
16,MEATQQAERKSMNKSQAFANASHDIRGALAGMKGLIDICRDGVKPGSDVDTTLNQVNVCAKDLVALLNSVLDMSKIESGKMQLVEEDFNLSKLLEDVIDFYHPVAMKKGVDVVLDPHDGSVFKFSNVRGDSGRLKQILNNLVSNAVKFTVDGHIAVRAWAQRPGSNSSVVLASYPKGVSKFVKSMFCKNKEESSTYETEISNSIRNNANTMEFVFEVDDTGKGIPMEMRKSVFENYVQVRETAQGHQGTGLGLGIVQSLVRLMGGEIRITDKAMGEKGTCFQFNVLLTTLESPPVSDMK,not soluble
17,MGSDKIHHHHHHMKTYTSNHIVFFSPTHTSAKIARAIGESIGMGRRIEIDLTTDENSSPIEIKDSITIIAVPVYAGRVAPIALQRLRRLKGNNAPAILVAVYGNRDYEDALVELRDETIQLGFTPLAAGAFIGEHSYSRPNMPIAEGRPDVTDLQIAEQFGKDCLTKLEKDETLSDFYLKGNIPYRFVGPSTPAAPVCTEECFACGECIEVCPTHAIALSDEGKIETEITKCIKCCACVKECPNGARVFDTPYTPMLHQKCAARREPELFI,not soluble
18,MSQVQNNSSVSELLASNSGSIKSYRKDEEDPQDRFLKLLVTQMQNQDPLSPMDNAEVTSQMAQISTVSGIDKLNTTLEKLVADSDARRSFEAATMIGRGVLVPGTDMQLENQAAIGGFELAESVDKLTVTVKDSAGITVREIDLGAQAAGVGTFVWDGMANNGNAAADGQYSFALKAIRADKEVSSSALAFGSVSSAQAGKDGALLEVGRLGYVGMDAVKKIF,not soluble
19,GPGSMQTDFGDATTFSLRPDHKRKFRPNDIRPVVRSLLESRLENEVYKADEMQSISKEIADGVRDRIRSMELERYKIMVHCMIGEQRGQGLRAGCKMFWDSDTDDYFEEVYVTQHLFAVVTVFGLYQY,not soluble
20,MIAIIDYGMGNIRSVEQALKYIGAAYIVTSDKEEIFRSDGVILPGVGAFPKAMDILEEKDLVRVLQEIGRSRKPLLGICLGMQLLFEKSEELQDCNGLSLLPGVIRKLKVPYKIPHMGWNELKKEGEIALWNGVEDGSFVYYVHSYYADCPNEIVYGISDYGVKVPGFVAKGNIYGAQFHPEKSGDIGMQMLKNFKGVVETWKSSQLSI,soluble
21,MGGLLFSSLQHCQQGFVISNELRQQQSELTSTWDLMLQTRINLSRSAARMMMDASNQQSSAKTDLLQNAKTTLAQAAAHYANFKNMTPLPAMAEASANVDEKYQRYQAALAELIQFLDNGNMDAYFAQPTQGMQNALGEALGNYARVSENLYRQTFDQSAHDYR,soluble
22,MGENYKFFNHKDCEFFPCHKTNKPEEFNCLFCYCPLYALGENCGGNFKYTDKGIKDCSSCILPHKKDNYNYIMSKFQDLVKITSKKLEHHHHHH,not soluble
23,RLCKALYSFQARQDDELNLEKGDIVIIHEKKEEGWWFGSLNGKKGHFPAAYVEELPSNAGNTATKA,soluble
24,MGSDKIHHHHHHMSYSLQKSMVAKVVGLSLVMLLAACSSDQRYKRQVSGDESYLKAPAQHVLNTPAGMILPVQNGDFDIPPVTLNGAVGKELDIRPPVQPLALLNGSRTQTSGDTATLLLENSAQNSQIWSQVIRVLQDNAFTIANRQDASQTLTTDWISWPREDENVPYQGRYQISVQQQGYQVALIVKLLGLQLNGQPVTTSDQTQRYAGLMLNVLSNGLDSQATARENALANRTIGSLDVQSGADDTGLPLLIVRGPYTVVWDRLPVALDKIGMKVNDRSRPQGSVSVTYRAPSGGTWDDLGAKNPELPNGDYKLQVGDLDNRSSLQFIDSKGHTLTQSQNDALVAVFQAAFSK,not soluble
25,SMDPPPSETHKLVVVGGGGVGKSALTIQFIQSYFVSDYDPTIEDSYTKICSVDGIPARLDILDTAGQEEFGAMREQYMRAGHGFLLVFAINDRQSFNEVGKLFTQILRVKDRDDFPVVLVGNKADLESQRQVPRSEASAFGASHHVAYFEASAKLRLNVDEAFEQLVRAVRKYQEQELPPS,soluble
26,MSDESANPSCISHLSIGTNDFPRARAFYDAVMAALGCKVILEYPGAVAYGKLYPEFWVQAPIDGRPASVGNGSHVGFFADSKAQVDAFHAAALAAGARDEGAPGPRPLYGEPYYGCFIRDLDGHKVEASYWDMSQGFDAHDHAH,not soluble
27,MAHHHHHHMLKRYERTKLNVLRGERFLRLCEVSYRAVCRDPSLGGAEGIANIEDRTWEMVQRTFQASPERCSLKNAPFSVDGVEICALLRRPDNVFLILVAQYRPPVDAVVLEFPAGLVDNGEDVKSAALRELKEETGYVATEENIISVTDALCCEPGMTDSCCKFVRLFVDGEKEVNRFPQQELDEGEDIEVILLPISLKKGVAGGDTPLQSLNKLLHEKNKGQQRNIVDAKLYMFLDGLSQMSTMFC,soluble
